Positions count from the first letter of the chain named. Names may count otherwise.
B1: His-tagged Rv3634c (H3634) S121A mutant (enzyme)
chain: MRALVTGAAGFIGSTLVDRLLADGHSVVGLDNFATGRATNLEHLADNSAHVFVEADIVTADLHAILEQHRPEVVFHLAAQIDVRRSVADPQFDAAVNVIGTVRLAEAARQTGVRKIVHTSAGGSIYGTPPEYPTPETAPTDPASPYAAGKVAGEIYLNTFRHLYGLDCSHIAPANVYGPRQDPHGEAGVVAIFAQALLSGKPTRVFGDGTNTRDYVFVDDVVDAFVRVSADVGGGLRFNIGTGKETSDRQLHSAVAAAVGGPDDPEFHPPRLGDLKRSCLDIGLAERVLGWRPQIELADGVRRTVEYFRHKHTD
notes: not shown: His6, N-terminal, kept
B2: His-tagged Rv3634c (H3634) K150R mutant (enzyme)
chain: B1 chain with A121S, K150R
notes: as for B1
B3: His-tagged Rv3634c (H3634) Y146F mutant (enzyme)
chain: B1 chain with A121S, Y146F
notes: as for B1

Molecular target: the molecule itself
Assay: SEC; Superdex 200 16/600 GL column, FPLC buffer (20 mM Tris pH 8.0, 100 mM NaCl); calibrated with conalbumin, ovalbumin, carbonic anhydrase, ribonuclease A and aprotinin; molecular weight from Kav

Protein	stoichiometry N
B1	2
B2	2
B3	2

Source: publication PMC5389812, “Rv3634c from Mycobacterium tuberculosis H37Rv encodes an enzyme with UDP-Gal/Glc and UDP-GalNAc 4-epimerase activities” (PLoS ONE, 2017)
